In patent US20160130351A1 (NOVIMMUNE S A, published 2016):

T1: soluble cynomolgus monkey IL-6R (cynomolgus monkey, UniProt A0A2K5WN54 60-396)
T1 construct: extracellular domain; also called scyIL-6R; soluble cynomolgus monkey IL-6 Receptor; not shown: C-terminal His- or Avi-Tag
T1 sequence: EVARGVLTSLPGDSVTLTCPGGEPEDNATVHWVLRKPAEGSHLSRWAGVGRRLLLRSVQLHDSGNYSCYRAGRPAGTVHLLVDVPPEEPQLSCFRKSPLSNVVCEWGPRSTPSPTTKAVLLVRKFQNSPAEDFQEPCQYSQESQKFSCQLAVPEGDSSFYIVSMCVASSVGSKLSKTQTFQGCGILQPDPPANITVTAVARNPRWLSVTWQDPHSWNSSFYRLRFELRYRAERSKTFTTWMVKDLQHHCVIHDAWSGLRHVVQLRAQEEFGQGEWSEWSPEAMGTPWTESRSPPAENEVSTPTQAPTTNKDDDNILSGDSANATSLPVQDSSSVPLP

T2: carrier-free soluble human IL-6R (R&D) (human, UniProt P08887 20-365)
T2 construct: extracellular domain; also called shuIL-6R; shuIL6-R
T2 sequence (looked up): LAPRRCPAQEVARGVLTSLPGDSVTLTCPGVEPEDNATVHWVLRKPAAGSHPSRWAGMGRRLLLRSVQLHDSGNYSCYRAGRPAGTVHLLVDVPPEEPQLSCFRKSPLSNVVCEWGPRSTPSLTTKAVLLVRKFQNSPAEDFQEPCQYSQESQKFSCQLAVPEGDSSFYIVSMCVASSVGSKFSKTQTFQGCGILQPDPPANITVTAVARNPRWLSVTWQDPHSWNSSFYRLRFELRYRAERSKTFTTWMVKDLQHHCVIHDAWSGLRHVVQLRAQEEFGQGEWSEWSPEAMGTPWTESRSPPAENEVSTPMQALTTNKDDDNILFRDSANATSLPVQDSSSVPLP


Key:
Assay in all cases: SPR (Biacore 2000), mAb captured on anti-human IgG Fc, analyte in solution, 25 C, 1:1 Langmuir
[1] = molecular target: T1, soluble cynomolgus monkey IL-6R
Procedure: (§1) A CM5 Biacore chip was used and 1640 RU (response units) of an anti-human IgG Fc (Biacore AB, Uppsala, Sweden) was immobilized by EDC/NHS chemistry. […] The surface was regenerated after each cycle by injection of 3M magnesium chloride at 20 μL/min, for 30 s followed by lmin of stabilization time in HBS-EP buffer (Biacore AB, Uppsala, Sweden). Binding was measured by passing analytes carrier-free soluble human IL-6R (shuIL6-R; R&D), soluble human IL-6Rc (shuIL-6Rc) and soluble cynomolgus monkey IL-6R (scyIL-6R) in duplicates at the following concentrations: 100 nM, 50 nM, 25 nM, 12.5 nM, 6.25 nM and 0nM. All solutions were diluted in HBS-EP buffer. Injection was performed at 50 μl/min for 3 min followed by 12 min of dissociation time and the temperature was set at 25° C.

[2] = molecular target: T2, carrier-free soluble human IL-6R (R&D)
Procedure: as §1

[3] = molecular target: soluble human IL-6Rc (shuIL-6Rc) recombinant fusion protein of IL-6R and IL-6 (human) (UniProt P08887)

| Binder | Kd [1] | koff [1] | kon [1] | Kd [2] | koff [2] | kon [2] | Kd [3] | koff [3] | kon [3] |
| --- | --- | --- | --- | --- | --- | --- | --- | --- | --- |
| NI-1201-B antibody (antibody, V domains shown) VH: QVQLVQSGAEVKKPGSSVKVSCKASGGTFSSYAISWVRQAPGQGLEWMGGIIPLFDTTKYAQKFQGRVTITADESTSTAYMELSSLRSEDTAVYYCARDRDILTDYYPLGGMDVWGQGTTVTVSS VL: AIQLTQSPSSLSASVGDRVTITCRASQGISSVLAWYQQKPGKAPKLLIYDASSLESGVPSRFSGSGSGTDFTLTISSLQPEDFATYYCQQSNSYPLTFGGGTKVEIKR | 1.81 nM | 0.000207 s⁻¹ | 115000 M⁻¹ s⁻¹ | 0.107 nM | 9.4e-05 s⁻¹ | 875000 M⁻¹ s⁻¹ | 4.43 nM | 0.000237 s⁻¹ | 53400 M⁻¹ s⁻¹ |
| NI-1201-D antibody (antibody, V domains shown) VH: QVQLVQSGAEVKKPGSSVKVSCKASGGTFSSYAISWVRQAPGQGLEWMGGIIPAFETTKYAQKFQGRVTITADESTSTAYMELSSLRSEDTAVYYCARDRDILTDYYPLGGMDVWGQGTTVTVSS VL: AIQLTQSPSSLSASVGDRVTITCRASQGISSVLAWYQQKPGKAPKLLIYDASSLESGVPSRFSGSGSGTDFTLTISSLQPEDFATYYCQQSQSYPLTFGGGTKVEIKR | 1.79 nM | 0.0002 s⁻¹ | 112000 M⁻¹ s⁻¹ | 0.134 nM | 0.000102 s⁻¹ | 761000 M⁻¹ s⁻¹ | 4.89 nM | 0.000222 s⁻¹ | 45300 M⁻¹ s⁻¹ |

Continued by falling Kd [1], values first:

| Kd [1] | koff [1] | kon [1] | Kd [2] | koff [2] | kon [2] | Kd [3] | koff [3] | kon [3] | Binder |
| --- | --- | --- | --- | --- | --- | --- | --- | --- | --- |
| 2.05 nM | 0.000213 s⁻¹ | 104000 M⁻¹ s⁻¹ | 0.121 nM | 0.00011 s⁻¹ | 829000 M⁻¹ s⁻¹ | 4.92 nM | 0.000246 s⁻¹ | 50100 M⁻¹ s⁻¹ | NI-1201-A antibody (antibody, V domains shown) VH: QVQLVQSGAEVKKPGSSVKVSCKASGGTFSSYAISWVRQAPGQGLEWMGGIIPLFDTTKYAQKFQGRVTITADESTSTAYMELSSLRSEDTAVYYCARDRDILTDYYPMGGMDVWGQGTTVTVSS VL: AIQLTQSPSSLSASVGDRVTITCRASQGISSVLAWYQQKPGKAPKLLIYDASSLESGVPSRFSGSGSGTDFTLTISSLQPEDFATYYCQQSNSYPLTFGGGTKVEIKR |
| 2.03 nM | 0.000225 s⁻¹ | 111000 M⁻¹ s⁻¹ | 0.11 nM | 0.00011 s⁻¹ | 992000 M⁻¹ s⁻¹ | 5.03 nM | 0.00024 s⁻¹ | 47700 M⁻¹ s⁻¹ | NI-1201-C antibody (antibody, V domains shown) VH: QVQLVQSGAEVKKPGSSVKVSCKASGGTFSSYAISWVRQAPGQGLEWMGGIIPAFETTKYAQKFQGRVTITADESTSTAYMELSSLRSEDTAVYYCARDRDILTDYYPLGGMDVWGQGTTVTVSS VL: AIQLTQSPSSLSASVGDRVTITCRASQGISSVLAWYQQKPGKAPKLLIYDASSLESGVPSRFSGSGSGTDFTLTISSLQPEDFATYYCQQSNSYPLTFGGGTKVEIKR |
